Test results: US9012420B2, “Aptamer for chymase, and use thereof” (Ribomic Inc., priority 2009, dated 2015)
Oligonucleotides are written 5' to 3', each unit as a sugar letter and its base; * is a phosphorothioate linkage, no mark a phosphodiester; rarer units and linkages stand in square brackets, end groups in braces. Plain capitals give the bases only. r = 2'-OH (RNA); f = 2'-fluoro

T1: chymase (Homo sapiens, UniProt P23946 P23946:22-247)
T1 sequence: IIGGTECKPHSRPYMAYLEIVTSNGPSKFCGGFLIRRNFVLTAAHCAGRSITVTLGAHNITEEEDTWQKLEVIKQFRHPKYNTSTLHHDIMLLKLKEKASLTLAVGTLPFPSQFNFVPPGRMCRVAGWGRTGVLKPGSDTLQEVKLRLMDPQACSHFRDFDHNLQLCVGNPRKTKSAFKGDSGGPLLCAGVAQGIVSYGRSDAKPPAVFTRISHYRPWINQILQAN

T2: chymase (recombinant, manufactured by SIGMA) (Homo sapiens, UniProt P23946)
T2 construct: purchased SIGMA; host or cells: yeast
T2 sequence (P23946 22-247): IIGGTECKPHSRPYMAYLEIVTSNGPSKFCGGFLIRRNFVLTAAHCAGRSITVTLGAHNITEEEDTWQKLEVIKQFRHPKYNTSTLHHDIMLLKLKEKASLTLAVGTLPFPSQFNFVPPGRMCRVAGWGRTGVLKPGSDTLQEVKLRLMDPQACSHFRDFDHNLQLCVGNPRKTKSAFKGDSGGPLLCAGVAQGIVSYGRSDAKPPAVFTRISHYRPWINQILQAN

T3: chymase (Homo sapiens, UniProt P23946)
T3 sequence (P23946 22-247): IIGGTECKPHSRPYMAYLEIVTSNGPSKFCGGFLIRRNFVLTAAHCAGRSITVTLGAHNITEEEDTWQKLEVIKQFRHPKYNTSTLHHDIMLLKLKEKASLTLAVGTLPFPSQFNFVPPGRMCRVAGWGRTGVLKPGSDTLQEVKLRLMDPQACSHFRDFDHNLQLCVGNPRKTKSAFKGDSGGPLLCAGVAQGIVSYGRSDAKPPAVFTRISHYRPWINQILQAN


Experiments:
chymase [1] = target: T1, chymase; assay: inhibition; Suc-AAPF-MCA, 37 C, solution C; details: tags: recombinant, expressed in yeast, SIGMA
Procedure: Here, Suc is a protecting succinyl group, and MCA is a 4-methylcoumaryl-7-amide group; upon cleavage of the C-terminal side of phenylalanine, AMC (7-amino-4-methyl-coumarine) is released. By detecting the fluorescence of this AMC, the enzyme activity of chymase can be determined. The assay was performed using a 96-well plate (F16 Black Maxisorp Fluoronunc, manufactured by Nunc), with a reaction mixture volume of 100 μL, in solution C as a buffer solution. First, each nucleic acid was serially diluted to 0.0027-2 μM concentrations in solution C to obtain 50 μL solutions. After 10 μL of the 1 mM substrate prepared in solution C was added thereto, the plate was set to the microplate reader SpectraMax190 (manufactured by Molecular Devices Corporation), and incubated at 37° C. for 5 minutes. Separately, 0.05 μg (or 0.005 μg) of chymase (recombinant, manufactured by SIGMA) was diluted in solution C to obtain a 40 μL chymase solution, and incubated at 37° C. for 5 minutes. The chymase solution was added to the mixture of the nucleic acid and substrate to initiate an enzyme reaction. The final chymase concentration in the reaction mixture was 16.7 nM (or 1.67 nM), the final substrate concentration being 100 μM. The plate containing the reaction mixture was set to the microplate reader SpectraMax190 (manufactured by Molecular Devices Corporation), and examined for time-dependent changes in the fluorescence intensity at 37° C. for 5 minutes (or 30 minutes) (excitation wavelength 380 nm, detection wavelength 460 nm). A linear approximation of the increase in the fluorescence of the AMC released from the substrate by chymase activity was generated, and its slope was taken as the initial velocity […]. For control, samples were treated and analyzed in the same manner in two cases: use of a 30N or 40N (a nucleotide of 30 or 40 consecutive bases represented by N; N is A, G, C or T) nucleic acid pool (negative control), and use of chymostatin, a known chymotrypsin-like serine protease inhibitor (positive control). Taking the initial reaction velocity without the nucleic acid and inhibitor (V_0) as a 100% enzyme activity, the inhibitory rate of each test substance was calculated using the following equation: […]
The chymase inhibitory activity was measured in the same manner as in Example 3.

[2] = target: T2, chymase (recombinant, manufactured by SIGMA); assay: Chymase inhibitory activity using synthetic substrate Suc-Ala-Ala-Pro-Phe-MCA; format: biochemical; details: Table 3; substrate 100 μM, solution C, 37° C.; mean value for 2 to 3 measurements
Procedure: A first method employs a synthetic substrate. A useful chymase substrate is Suc-Ala-Ala-Pro-Phe-MCA (4-methylcoumaryl-7-amide group) (manufactured by Peptide Institute, Inc.), which contains the 4-amino acid peptide “Ala-Ala-Pro-Phe”, a standard substrate for chymotrypsin-like proteases.
The assay is performed using a 96-well plate (F16 Black Maxisorp Fluoronunc, manufactured by Nunc), with a reaction mixture volume of 100 μL, in a buffer solution (solution C; see Example 2 below). First, each nucleic acid is prepared in solution C to obtain 50 μL solutions. After 10 μL of the 1 mM substrate prepared in solution C is added, the plate is set to the microplate reader SpectraMax190 (manufactured by Molecular Devices Corporation), and incubated at 37° C. for 5 minutes. Separately, 0.05 μg of chymase (recombinant, manufactured by SIGMA) is diluted in solution C, and 40 μL of this dilution is incubated at 37° C. for 5 minutes. The chymase solution is added to the mixture of the nucleic acid and substrate to initiate an enzyme reaction. The plate containing the reaction mixture is set to the microplate reader SpectraMax190 (manufactured by Molecular Devices Corporation), and examined for time-dependent changes in the fluorescence intensity at 37° C. for 5 minutes (excitation wavelength 380 nm, detection wavelength 460 nm). A linear approximation of the increase in the fluorescence of the AMC (7-amino-4-methylcoumarine) released from the substrate by chymase activity is generated, and its slope is taken as the initial reaction velocity. For control, samples are treated and analyzed in the same manner in two cases: use of a nucleic acid pool containing a random sequence of 30 or 40 nucleotides (negative control), and use of chymostatin, a known chymotrypsin-like serine protease inhibitor (positive control). Taking the initial reaction velocity without the nucleic acid and inhibitor as a 100% enzyme activity, the inhibitory rate for each test substance is calculated, and the inhibitor concentration required to cause a 50% inhibition of the enzyme activity (IC50) is determined.
Whether the nucleic acids shown by SEQ ID NO: 4-20, 22-34, and 38-48 inhibit the enzyme activity of chymase was determined as described below. The chymase substrate used was Suc-Ala-Ala-Pro-Phe-MCA (manufactured by Peptide Institute, Inc.), which contains the 4-amino-acid peptide Ala-Ala-Pro-Phe, a standard substrate for chymotrypsin-like proteases. Here, Suc is a protecting succinyl group, and MCA is a 4-methylcoumaryl-7-amide group; upon cleavage of the C-terminal side of phenylalanine, AMC (7-amino-4-methylcoumarine) is released. By detecting the fluorescence of this AMC, the enzyme activity of chymase can be determined. The assay was performed using a 96-well plate (F16 Black Maxisorp Fluoronunc, manufactured by Nunc), with a reaction mixture volume of 100 μL, in solution C as a buffer solution. First, each nucleic acid was serially diluted to 0.0027-2 μM concentrations in solution C to obtain 50 μL solutions. After 10 μL of the 1 mM substrate prepared in solution C was added thereto, the plate was set to the microplate reader SpectraMax190 (manufactured by Molecular Devices Corporation), and incubated at 37° C. for 5 minutes. Separately, 0.05 μg (or 0.005 μg) of chymase (recombinant, manufactured by SIGMA) was diluted in solution C to obtain a 40 μL chymase solution, and incubated at 37° C. for 5 minutes. The chymase solution was added to the mixture of the nucleic acid and substrate to initiate an enzyme reaction. The final chymase concentration in the reaction mixture was 16.7 nM (or 1.67 nM), the final substrate concentration being 100 μM. The plate containing the reaction mixture was set to the microplate reader SpectraMax190 (manufactured by Molecular Devices Corporation), and examined for time-dependent changes in the fluorescence intensity at 37° C. for 5 minutes (or 30 minutes) (excitation wavelength 380 nm, detection wavelength 460 nm). […]

chymase [3] = target: T3, chymase; assay: Surface plasmon resonance (Biacore T100), aptamer immobilized on SA chip, chymase injected as analyte; format: binding; parameters: key: ++: a sequence that binds to chymase significantly more strongly than the negative control 40N; +: a sequence that binds to chymase equivalently compared with the negative control 40N; details: Table 1; about 1000 RU nucleic acid immobilized, chymase 0.2 μM analyte, running buffer solution A; compared with 40N
Procedure: Binding strength is measured using Biacore T100 (manufactured by GE Healthcare). In a method of measurement, the aptamer is first immobilized onto a sensor chip, the amount immobilized being about 1000 RU. 20 μL of a chymase solution for analyte, prepared at 0.2 μM, is injected, and the binding of chymase to the aptamer is detected. An RNA comprising a random nucleotide sequence of 30 or 40 nucleotides is used as a negative control.
The binding activities against chymase of the nucleic acids shown by SEQ ID NO: 4-20 and 22-34 were determined by the surface plasmon resonance method using Biacore T100 (manufactured by GE Healthcare). The sensor chip used was the SA chip, which had streptavidin immobilized thereon. Bound thereto was about 1500 RU of a 16-nucleotide Poly dT with biotin bound to the 5′ end thereof. […] 20 μL of chymase for analyte, prepared at 0.2 μM, was injected. Solution A was used as a running buffer.
The binding activities against chymase of the nucleic acids shown by SEQ ID NO: 38-48 were evaluated by the surface plasmon resonance method. In the evaluations for SEQ ID NO: 38-48, measurements were taken in the same manner as Example 1. Solution C was used as a running buffer.

Row | Molecule | IC50 (chymase [1]) | IC50 [2] | Binding activity as determined using Biacore (chymase [3])
1 | GGGTTAGAUAGAGTUAAAAACCC (mixed, 2'-F U; 2'-OMe 1-3,7,8,10,13,17-20; DNA T4,T5,T14,A16,C21-C23; 5' and 3' idT) [72(4)] | 65 nM | – | –
2 | GGGUUAGAUAGAGUUAAAAACCC (ssRNA, 2'-F U and C; 2'-OMe 2,3,7,8,10,13,16-20; 5' and 3' idT) [56(40)] | 51 nM | – | –
3 | GGGUUAGAUAGAGUUAAAAACCC (ssRNA, 2'-F U and C; 2'-OMe 1-3,7,8,10,16,17,19,20) [56(20)] | 102 nM | – | –
4 | GGGUUAGAUAGAGUUAAAAACCC (ssRNA, 2'-F U and C; 2'-OMe 1-3,10,13,16-20; PS 6-7,7-8; 5' and 3' idT) [56(37)] | 46 nM | – | –
5 | 12 (nucleic acid, aptamer) rGrGrGrAfCrGrGfUrArGrGrArAfUfUfCrGfCfCrGfUfCrArAfCrGfUfUrAfCrAfUrArAfUrGfUrAfUrAfUrAfCfCrArGrGrGfUrArAfCfUrArArAfCrAfUrArGrArArGrArGfCrGrGfCfCrGfC | – | 128 ± 23 nM | ++
6 | GGGUUAGAUAGAGUUAAAAACCC (mixed, 2'-F U and C; 2'-OMe 1-3,7,10,13,16-20; DNA A6; 5' and 3' idT) [56(49)] | 69 nM | – | –
7 | 8 (nucleic acid, aptamer) rGrGrGrAfCrGrGfUrArGrGrArAfUfUfCfUrAfCrGrGfUfCfUrGfUrGfUrGrArArAfUfUrGrArArAfCrAfCrAfCrArArArGrArAfCrArAfUrArArAfCrAfUrArGrArArGrArGfCrGrGfCfCrGfC | – | 453 ± 463 nM | ++
8 | GGGTTAGAUAGAGTUAAAAACCC (mixed, 2'-F U; 2'-OMe 1-3,7,8,10,16-20; DNA T4,T5,G13,T14,C21-C23; 5' and 3' idT) [72(3)] | 50 nM | – | –
9 | 15 (nucleic acid, aptamer) rGrGrGrAfCrGrGfUrArGrGrArAfUfUfCfCfCrArGrArArArAfUrArArAfUfUfCfCrGrArArGrArArArAfCrArAfCrArAfUfUfUfUfUrGfCrArArAfCrAfUrArGrArArGrArGfCrGrGfCfCrGfC | – | 285 ± 21 nM | ++
10 | GGGUUAGAUAGAGUUAAAAACCC (mixed, 2'-F U and C; 2'-OMe 1-3,10,13,16-20; DNA G7,A8; 5' and 3' idT) [56(52)] | 52 nM | – | –
11 | 11 (nucleic acid, aptamer) rGrGrGrAfCrGrGfUrArGrGrArAfUfUfCfCfCrGrAfCrAfCrGrArArAfUrGfUrGfUrGrAfUfUrArAfUfUfCfCrGrArAfCrArAfCrArArArGfUrArAfCrAfUrArGrArArGrArGfCrGrGfCfCrGfC | – | 145 ± 36 nM | ++
12 | GGGUUAGAUAGAGUUAAAAACCC (ssRNA, 2'-F U and C; 2'-OMe 1-3,19,20; 5' and 3' idT) [56(24)] | 38 nM | – | –
13 | GGGUUAGAUAGAGUUAAAAACCC (ssRNA, 2'-F U and C; 2'-OMe 7,8,10; 5' and 3' idT) [56(25)] | 70 nM | – | –
14 | 9 (nucleic acid) rGrGrGrAfCrGrGfUrArGrGrArAfUfUfCfCfCrGrArArArArGfCrArAfCrArArGfCfUfUrGfCfUrArArArAfUrGrAfUfUfCfCrGrArArArArArAfCrAfCrAfUrArGrArArGrArGfCrGrGfCfCrGfC | – | 273 ± 69 nM | ++
15 | GGGUUAGAUAGAGUUAAAAACCC (ssRNA, 2'-F U and C; 2'-OMe 1-3,10,13,16-20; PS 7-8; 5' and 3' idT) [56(36)] | 97 nM | – | –
16 | GGGUUAGAUAGAGUUAAAAACCC (ssRNA, 2'-F U and C; 2'-OMe 2,3,7,8,10,13,16-20; 5' PEG 40 kDa; 3' idT) [56(39)] | 86 nM | – | –
17 | GGGUUAGAUAGAGUUAAAAACCC (ssRNA, 2'-F U and C; 2'-OMe 2,3,7,8,10,13,16-20; PS 6-7; 5' and 3' idT) [56(41)] | 53 nM | – | –
18 | 10 (nucleic acid, aptamer) rGrGrGrAfCrGrGfUrArGrGrArAfUfUfCfCrGfCfCrGfCfCfUrArArArArArAfCrGrAfCrGrAfUrAfUfUrAfCrArGrArArAfCrGfUfCrArArAfUrAfCrAfUrArGrArArGrArGfCrGrGfCfCrGfC | – | > 500 nM | ++
